Measured values: paper PMC11187126, “Structure and dynamics of the pyroglutamylated RF-amide peptide QRFP receptor GPR103” (Nature Communications, 2024)

Tests used:
[1] = test system: GPR103; conditions: cited from earlier work
Excerpt: GPR103 is a Gi/o- and Gq-coupled GPCR expressed in the adrenal gland and various regions of the brain such as the hypothalamus, which plays a crucial role in the regulation of energy metabolism and appetite control. […] In this study, we focused on the structural analysis complexed with Gq. To facilitate expression and purification, we truncated the C-terminal residues after G366 of human GPR103. […] (Supplementary Fig. 1a–d and Supplementary Table 1). […] The heptapeptide is conserved from fish to mammals, except for S23 (Supplementary Fig. 6a), consistent with the fact that the S23 side chain poorly interacts with the receptor. The receptor residues interacting with the heptapeptide are highly conserved among the homologs (Supplementary Fig. 6b, c). Accordingly, this observed heptapeptide-TMD interaction plays a key role in evolutionarily conserved GPR103 activation.

[2] = cited from earlier work
Excerpt: GPR103 is a Gi/o- and Gq-coupled GPCR expressed in the adrenal gland and various regions of the brain such as the hypothalamus, which plays a crucial role in the regulation of energy metabolism and appetite control. QRFP and GPR103 are implicated in a variety of physiological functions ranging from the modulation of feeding behavior to the regulation of energy homeostasis, cardiovascular function, and bone formation. ... || In the current study, we have not only elucidated the architecture of the receptor but also shed light on the structure of QRFP itself, potentially paving the way for the modulation of QRFP-neurons (Q-neurons)[46]. […] The QRFP-induced hibernation-like state (QIH) provides an unusual model to study metabolic suppression for therapeutic purposes, as well as artificial hibernation. QIH through pharmacogenetics[47] or optogenetics[48] is achievable in murine models, ...

[3] = biological target: GPR103 E203^ECL2A (human) (UniProt Q96P65)
[4] = biological target: GPR103 E297^6.59A (human) (UniProt Q96P65)
[5] = biological target: GPR103 Q125^3.32 mutant (human) (UniProt Q96P65)
[6] = biological target: GPR103 Q318^7.39A (human) (UniProt Q96P65)
[7] = biological target: GPR103 T102^2.61 mutant (human) (UniProt Q96P65)
[8] = biological target: GPR103 alanine mutant of F11^N-term (human) (UniProt Q96P65)
[9] = biological target: GPR103 alanine mutant of F25^N-term (human) (UniProt Q96P65)
[10] = biological target: GPR103 alanine mutant of Y29^N-term (human) (UniProt Q96P65)
[11] = biological target: GPR103 C98^2.57A (human) (UniProt Q96P65)
GPR103 C98^2.57A (human), sequence (Q96P65 whole entry C98A): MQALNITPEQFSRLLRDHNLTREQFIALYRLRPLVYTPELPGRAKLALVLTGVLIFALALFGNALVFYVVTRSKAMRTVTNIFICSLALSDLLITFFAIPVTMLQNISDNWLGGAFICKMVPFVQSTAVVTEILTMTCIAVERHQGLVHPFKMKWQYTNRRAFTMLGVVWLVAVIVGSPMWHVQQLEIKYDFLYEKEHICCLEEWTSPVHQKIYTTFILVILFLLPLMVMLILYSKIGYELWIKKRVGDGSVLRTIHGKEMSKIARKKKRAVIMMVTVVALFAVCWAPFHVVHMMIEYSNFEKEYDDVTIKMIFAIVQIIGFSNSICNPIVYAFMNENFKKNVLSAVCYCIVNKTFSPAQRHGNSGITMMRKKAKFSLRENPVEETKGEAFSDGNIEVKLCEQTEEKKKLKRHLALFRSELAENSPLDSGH

GPR103 alanine mutant of Y29^N-term (human), sequence (Q96P65 other isoform, or with tags, fused parts or gaps mutant): as the sequence (Q96P65 whole entry C98A) above, with Y29A, A98C counted along it
GPR103 Q318^7.39A (human), sequence (Q96P65 whole entry Q318A): as the sequence (Q96P65 whole entry C98A) above, with A98C, Q318A counted along it
GPR103 T102^2.61 mutant (human), sequence (Q96P65 whole entry, change not shown): as the sequence (Q96P65 whole entry C98A) above, with A98C counted along it
GPR103 Q125^3.32 mutant (human), sequence (Q96P65 whole entry, change not shown): as the sequence (Q96P65 whole entry C98A) above, with A98C counted along it
GPR103 E297^6.59A (human), sequence (Q96P65 whole entry E297A): as the sequence (Q96P65 whole entry C98A) above, with A98C, E297A counted along it
GPR103 E203^ECL2A (human), sequence (Q96P65 whole entry E203A): as the sequence (Q96P65 whole entry C98A) above, with A98C, E203A counted along it
GPR103 alanine mutant of F11^N-term (human), sequence (Q96P65 other isoform, or with tags, fused parts or gaps mutant): as the sequence (Q96P65 whole entry C98A) above, with F11A, A98C counted along it
GPR103 alanine mutant of F25^N-term (human), sequence (Q96P65 other isoform, or with tags, fused parts or gaps mutant): as the sequence (Q96P65 whole entry C98A) above, with F25A, A98C counted along it

EDEGSEATGFLPAAGEKTSGPLGNLAEELNGYSRKKGGFSFRF [QRFP43, pyroglutamylated RF-amide peptide, 43-amino acid RF-amide peptide with a pyroglutamylated N-terminus]
activity for GPR103 (in words) ([1]; ref [5]–[7]): specific activity for GPR103
food intake and fat mass (in words) ([2]; QRFP administration, ref [11]): increased food intake and fat mass
glucose-induced insulin release (in words) ([2]; QRFP administration, ref [11]): reducing glucose-induced insulin release
osteopenia and nociception (in words) ([2]; QRFP administration, ref [11]): may also cause osteopenia and facilitate nociception
orexigenic activity (in words) ([2]; ref [5]–[7]): orexigenic activity
hypothermia and metabolism (in words) ([2]; ref [46]): capable of inducing an extended state of hypothermia and reduced metabolism

GGFSFRF [C-terminal heptapeptide, C-terminal heptapeptide of QRFP26 (GGFSFRF)]
GPR103 activation (in words) ([1]; ref [27],[28]): sufficient to activate GPR103
affinity (in words) ([1]; ref [27],[28]): reduced affinity

QRFP26 (from UniProt P83859 91-136) (peptide)
QRFP26-induced activation of GPR103, TGFα shedding assay (reduction of potency against wild type) [3]: 3 fold
QRFP26-induced activation of GPR103, TGFα shedding assay (reduction of potency against wild type) [4]: 10 fold
QRFP26-induced activation of GPR103, TGFα shedding assay (reduction of potency against wild type) [5]: > 3 fold
QRFP26-induced activation of GPR103, TGFα shedding assay (reduction of potency against wild type) [6]: > 3 fold
QRFP26-induced activation of GPR103, TGFα shedding assay (reduction of potency against wild type) [7]: > 3 fold
QRFP26-induced activation of GPR103, TGFα shedding assay (reduction of potency against wild type) [8]: 10 fold
QRFP26-induced activation of GPR103, TGFα shedding assay (reduction of potency against wild type) [9]: 10 fold
QRFP26-induced activation of GPR103, TGFα shedding assay (reduction of potency against wild type) [10]: 10 fold
QRFP26-induced activation of GPR103, TGFα shedding assay (reduction of potency against wild type) [11]: 3 fold
